Patent US20130034493A1 (RESEARCH DEVELOPMENT FOUNDATION, published 2013)

Target: T1, recombinant BMP4 (rBMP4) (mouse, UniProt P21275 293-408, limits assumed)
T1 sequence (looked up): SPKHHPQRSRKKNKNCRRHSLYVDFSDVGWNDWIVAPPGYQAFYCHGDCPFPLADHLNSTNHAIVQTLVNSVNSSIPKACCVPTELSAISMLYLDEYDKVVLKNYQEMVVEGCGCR
Test: cell-based or functional assay

ERK1/2 phosphorylation in HUVECs: 5 fold
B1: mouse recombinant Olfml3-FLAG tagged protein (rOlfml3-FLAG) (other, not shown: small tags and cut ends)
chain: QQHHLVEYMERRLAALEERLAQCQDQSSRHAAELRDFKNKMLPLLEVAEKERETLRTEADSISGRVDRLEREVDYLETQNPALPCVELDEKVTGGPGAKGKGRRNEKYDMVTDCSYTVAQVRSMKILKRFGGSVGLWTKDPLGPAEKIYVLDGTQNDTAFVFPRLRDFTLAMAARKASRIRVPFPWVGTGQLVYGGFLYYARRPPGGPGGGGELENTLQLIKFHLANRTVVDSSVFPAESLIPPYGLTADTYIDLAADEEGLWAVYATRDDDRHLCLAKLDPQTLDTEQQWDTPCPRENAEAAFVICGTLYVVYNTRPASRARIQCSFDASGTLAPERAALSYFPRRYGAHASLRYNPRERQLYAWDDGYQIVYKLEMKKKEEEV
